Test results as given in PMC4491180, “Grb2 monomer–dimer equilibrium determines normal versus oncogenic function” (Nature Communications, 2015).
Where no end group is shown, it is not given here. [ ]: non-standard residue; d: D form. pY = N[C@@H](Cc1ccc(OP(=O)(O)O)cc1)C(=O)O

Experiments:
[1] = target: T1, wild-type Grb2 (growth factor receptor-bound protein 2), bacterially expressed and purified (UniProt P62993 1-217, Atto488 on the N-terminus of the labelled copy (100 nM); the titrated copy unlabelled); assay: MST; monomer–dimer equilibrium of Grb2 in the presence of a saturating concentration of pShc peptide; conditions: both partners purified
T1 construct: cloned into a modified pET28a with a TEV site; also called ^WTGrb2; dGrb2
T1 sequence (P62993 whole entry): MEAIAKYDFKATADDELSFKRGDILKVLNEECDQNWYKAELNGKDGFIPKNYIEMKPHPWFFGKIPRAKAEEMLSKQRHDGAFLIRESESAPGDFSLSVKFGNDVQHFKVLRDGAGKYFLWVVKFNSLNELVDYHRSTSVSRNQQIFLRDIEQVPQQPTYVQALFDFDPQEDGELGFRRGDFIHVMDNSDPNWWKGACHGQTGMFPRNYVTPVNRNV

[2] = target: T2, bacterial GFP-tagged Grb2 on GFP-trap beads (smFLIM) (UniProt P62993 1-217); assay: FRET or BRET; smFLIM: GFP–Grb2 on GFP-trap beads, RFP–Grb2 added for 1 h, 20 mM Tris-HCl, 50 mM NaCl, pH 8.0; then 10 μM phospho-Shc peptide for an hour; conditions: both partners purified
T2 construct: full-length Grb2; The second copy (FRET acceptor, added in solution) carried RFP (mRFP) instead of GFP; By the order of the cloning sites the fluorescent protein lies before Grb2; pET28a cut at NdeI may add an N-terminal His tag (surmised); also called GFP–Grb2; RFP–Grb2; source: E. coli (pET28a construct)
T2 sequence (P62993 whole entry): as above

B1: phospho-Shc peptide (peptide)
peptide: EEPPDHQ[pY]YNDFPGK
notes: Printed as EEPPDHQ(pY)YN-DFPGK; also called pShc; source: synthetic peptide, bought: GenScript
- binding result [1]: binds
- binding result [2]: binds
